These results are taken from US6579695B1.

In experiment [1] the target is N-terminal hexa-histidine-tagged SrfB1 domain of surfactin synthetase, apo-form (His6-SrfB1) (Bacillus subtilis) (UniProt Q04747).
For experiment [2], the target named is Rhizobial NodF (wild-type) (Rhizobial).
The target of experiment [3] is Lactobacillus casei D-Alanyl carrier protein, apo-form (apo-Dcp) (Lactobacillus casei).
Experiment [4] concerns the target E. coli acyl carrier protein, apo-form (apo-ACP) (E. coli) (UniProt P0A6A8).

In experiment [1], Bacillus subtilis Sfp (enzyme) gave a [14C]-L-valine-holo-SrfB1 covalent complex formed after preincubation of apo-SrfB1 with Sfp and CoASH of 14 fold.

Regarding “E. coli holo-acyl carrier protein synthase (ACPS) (enzyme)”, the [3H]phosphopantetheine incorporated, in vitro phosphopantetheinylation in the experiment with ACP-NodF chimera came to 122000 dpm. Besides, the % conversion, in vitro phosphopantetheinylation with [3H]CoA in experiment [2] is 47%. Also, the radioactivity incorporated into the protein fraction, 36 hour in vitro phosphopantetheinylation in experiment [3] worked out at 1.04e+06. Also, in experiment [4], the Km for apo-ACP, [3H]CoA radioassay was below 1 µM and the apparent kcat of phosphopantetheinyl transfer, [3H]CoA radioassay was determined as 0.167 s⁻¹.
